Test results reported in FireProtDB (doi:10.1126/science.aai7825).

B1: Nucleoid-associated protein YejK wild type, P33920 (protein)
chain: MSLDINQIALHQLIKRDEQNLELVLRDSLLEPTETVVEMVAELHRVYSAKNKAYGLFSEESELAQTLRLQRQGEEDFLAFSRAATGRLRDELAKYPFADGGFVLFCHYRYLAVEYLLVAVLSNLSSMRVNENLDINPTHYLDINHADIVARIDLTEWETNPESTRYLTFLKGRVGRKVADFFMDFLGASEGLNAKAQNRGLLQAVDDFTAEAQLDKAERQNVRQQVYSYCNEQLQAGEEIELKSLSKELAGVSEVSFTEFAAEKGYELEESFPADRSTLRQLTKFAGSGGGLTINFDAMLLGERIFWDPATDTLTIKGTPPNLRDQLQRRTSGGN
B2: Glutathione S-transferase YfcF wild type, P77544 (protein)
chain: MSKPAITLWSDAHFFSPYVLSAWVALQEKGLSFHIKTIDLDSGEHLQPTWQGYGQTRRVPLLQIDDFELSESSAIAEYLEDRFAPPTWERIYPLDLENRARARQIQAWLRSDLMPIREERPTDVVFAGAKKAPLTAEGKASAEKLFAMAEHLLVLGQPNLFGEWCIADTDLALMINRLVLHGDEVPERLVDYATFQWQRASVQRFIALSAKQSG
B3: Elongation factor P-like protein wild type, P0A6N8 (protein)
chain: MPRANEIKKGMVLNYNGKLLLVKDIDIQSPTARGAATLYKMRFSDVRTGLKVEERFKGDDIVDTVTLTRRYVDFSYVDGNEYVFMDKEDYTPYTFTKDQIEEELLFMPEGGMPDMQVLTWDGQLLALELPQTVDLEIVETAPGIKGASASARNKPATLSTGLVIQVPEYLSPGEKIRIHIEERRYMGRAD
B4: Probable ketoamine kinase YniA wild type, P77739 (protein)
chain: MWQAISRLLSEQLGEGEIELRNELPGGEVHAAWHLRYAGHDFFVKCDERELLPGFTAEADQLELLSRSKTVTVPKVWAVGADRDYSFLVMDYLPPRPLDAHSAFILGQQIARLHQWSDQPQFGLDFDNALSTTPQPNTWQRRWSTFFAEQRIGWQLELAAEKGIAFGNIDAIVEHIQQRLASHQPQPSLLHGDLWSGNCALGPDGPYIFDPACYWGDRECDLAMLPLHTEQPPQIYDGYQSVSPLPADFLERQPVYQLYTLLNRARLFGGQHLVIAQQSLDRLLAA
B5: Selenide, water dikinase wild type, P16456 (protein)
chain: MSENSIRLTQYSHGAGCGCKISPKVLETILHSEQAKFVDPNLLVGNETRDDAAVYDLGNGTSVISTTDFFMPIVDNPFDFGRIAATNAISDIFAMGGKPIMAIAILGWPINKLSPEIAREVTEGGRYACRQAGIALAGGHSIDAPEPIFGLAVTGIVPTERVKKNSTAQAGCKLFLTKPLGIGVLTTAEKKSLLKPEHQGLATEVMCRMNIAGASFANIEGVKAMTDVTGFGLLGHLSEMCQGAGVQARVDYEAIPKLPGVEEYIKLGAVPGGTERNFASYGHLMGEMPREVRDLLCDPQTSGGLLLAVMPEAENEVKATAAEFGIELTAIGELVPARGGRAMVEIR
B6: Uncharacterized Nudix hydrolase YfcD wild type, P65556 (protein)
chain: MEQRRLASTEWVDIVNEENEVIAQASREQMRAQCLRHRATYIVVHDGMGKILVQRRTETKDFLPGMLDATAGGVVQADEQLLESARREAEEELGIAGVPFAEHGQFYFEDKNCRVWGALFSCVSHGPFALQEDEVSEVCWLTPEEITARCDEFTPDSLKALALWMKRNAKNEAVETETAE
B7: 5-amino-6-(5-phospho-D-ribitylamino)uracil phosphatase YbjI wild type, P75809 (protein)
chain: MSIKLIAVDMDGTFLSDQKTYNRERFMAQYQQMKAQGIRFVVASGNQYYQLISFFPEIANEIAFVAENGGWVVSEGKDVFNGELSKDAFATVVEHLLTRPEVEIIACGKNSAYTLKKYDDAMKTVAEMYYHRLEYVDNFDNLEDIFFKFGLNLSDELIPQVQKALHEAIGDIMVSVHTGNGSIDLIIPGVHKANGLRQLQKLWGIDDSEVVVFGDGGNDIEMLRQAGFSFAMENAGSAVVAAAKYRAGSNNREGVLDVIDKVLKHEAPFDQ
B8: Probable L,D-transpeptidase YnhG wild type, P76193 (protein)
chain: MKRASLLTLTLIGAFSAIQAAWAVDYPLPPTGSRLVGQNQTYTVQEGDKNLQAIARRFDTAAMLILEANNTIAPVPKPGTTITIPSQLLLPDAPRQGIIVNLAELRLYYYPPGENIVQVYPIGIGLQGLETPVMETRVGQKIPNPTWTPTAGIRQRSLERGIKLPPVVPAGPNNPLGRYALRLAHGNGEYLIHGTSAPDSVGLRVSSGCIRMNAPDIKALFSSVRTGTPVKVINEPVKYSVEPNGMRYVEVHRPLSAEEQQNVQTMPYTLPAGFTQFKDNKAVDQKLVDKALYRRAGYPVSVSSGATPAASNAPSVESAQNGEPEQGNMLRVTQ
B9: Phospho-2-dehydro-3-deoxyheptonate aldolase, Phe-sensitive wild type, P0AB91 (protein)
chain: MNYQNDDLRIKEIKELLPPVALLEKFPATENAANTVAHARKAIHKILKGNDDRLLVVIGPCSIHDPVAAKEYATRLLALREELKDELEIVMRVYFEKPRTTVGWKGLINDPHMDNSFQINDGLRIARKLLLDINDSGLPAAGEFLDMITPQYLADLMSWGAIGARTTESQVHRELASGLSCPVGFKNGTDGTIKVAIDAINAAGAPHCFLSVTKWGHSAIVNTSGNGDCHIILRGGKEPNYSAKHVAEVKEGLNKAGLPAQVMIDFSHANSSKQFKKQMDVCADVCQQIAGGEKAIIGVMVESHLVEGNQSLESGEPLAYGKSITDACIGWEDTDALLRQLANAVKARRG
B10: Fructose-1,6-bisphosphatase class 1 wild type, P0A993 (protein)
chain: MKTLGEFIVEKQHEFSHATGELTALLSAIKLGAKIIHRDINKAGLVDILGASGAENVQGEVQQKLDLFANEKLKAALKARDIVAGIASEEEDEIVVFEGCEHAKYVVLMDPLDGSSNIDVNVSVGTIFSIYRRVTPVGTPVTEEDFLQPGNKQVAAGYVVYGSSTMLVYTTGCGVHAFTYDPSLGVFCLCQERMRFPEKGKTYSINEGNYIKFPNGVKKYIKFCQEEDKSTNRPYTSRYIGSLVADFHRNLLKGGIYLYPSTASHPDGKLRLLYECNPMAFLAEQAGGKASDGKERILDIIPETLHQRRSFFVGNDHMVEDVERFIREFPDA
B11: FKBP-type peptidyl-prolyl cis-trans isomerase FkpA wild type, P45523 (protein)
chain: MKSLFKVTLLATTMAVALHAPITFAAEAAKPATAADSKAAFKNDDQKSAYALGASLGRYMENSLKEQEKLGIKLDKDQLIAGVQDAFADKSKLSDQEIEQTLQAFEARVKSSAQAKMEKDAADNEAKGKEYREKFAKEKGVKTSSTGLVYQVVEAGKGEAPKDSDTVVVNYKGTLIDGKEFDNSYTRGEPLSFRLDGVIPGWTEGLKNIKKGGKIKLVIPPELAYGKAGVPGIPPNSTLVFDVELLDVKPAPKADAKPEADAKAADSAKK
B12: Imidazole glycerol phosphate synthase subunit HisH wild type, P60595 (protein)
chain: MNVVILDTGCANLNSVKSAIARHGYEPKVSRDPDVVLLADKLFLPGVGTAQAAMDQVRERELFDLIKACTQPVLGICLGMQLLGRRSEESNGVDLLGIIDEDVPKMTDFGLPLPHMGWNRVYPQAGNRLFQGIEDGAYFYFVHSYAMPVNPWTIAQCNYGEPFTAAVQKDNFYGVQFHPERSGAAGAKLLKNFLEM
B13: Exodeoxyribonuclease III wild type, P09030 (protein)
chain: MKFVSFNINGLRARPHQLEAIVEKHQPDVIGLQETKVHDDMFPLEEVAKLGYNVFYHGQKGHYGVALLTKETPIAVRRGFPGDDEEAQRRIIMAEIPSLLGNVTVINGYFPQGESRDHPIKFPAKAQFYQNLQNYLETELKRDNPVLIMGDMNISPTDLDIGIGEENRKRWLRTGKCSFLPEEREWMDRLMSWGLVDTFRHANPQTADRFSWFDYRSKGFDDNRGLRIDLLLASQPLAECCVETGIDYEIRSMEKPSDHAPVWATFRR
B14: Ribosome-binding ATPase YchF wild type, P0ABU2 (protein)
chain: MGFKCGIVGLPNVGKSTLFNALTKAGIEAANFPFCTIEPNTGVVPMPDPRLDQLAEIVKPQRTLPTTMEFVDIAGLVKGASKGEGLGNQFLTNIRETEAIGHVVRCFENDNIIHVSGKVNPADDIEVINTELALADLDTCERAIHRVQKKAKGGDKDAKAELAVLEKCLPQLENAGMLRALDLSAEEKAAIRYLSFLTLKPTMYIANVNEDGFENNPYLDQVREIAAKEGSVVVPVCAAVEADIAELDDEERDEFMQELGLEEPGLNRVIRAGYKLLNLQTYFTAGVKEVRAWTIPVGATAPQAAGKIHTDFEKGFIRAQTISFEDFITYKGEQGAKEAGKMRAEGKDYIVKDGDVMNFLFNV
B15: dTDP-glucose 4,6-dehydratase 2 wild type, P27830 (protein)
chain: MRKILITGGAGFIGSALVRYIINETSDAVVVVDKLTYAGNLMSLAPVAQSERFAFEKVDICDRAELARVFTEHQPDCVMHLAAESHVDRSIDGPAAFIETNIVGTYTLLEAARAYWNALTEDKKSAFRFHHISTDEVYGDLHSTDDFFTETTPYAPSSPYSASKASSDHLVRAWLRTYGLPTLITNCSNNYGPYHFPEKLIPLMILNALAGKSLPVYGNGQQIRDWLYVEDHARALYCVATTGKVGETYNIGGHNERKNLDVVETICELLEELAPNKPHGVAHYRDLITFVADRPGHDLRYAIDASKIARELGWLPQETFESGMRKTVQWYLANESWWKQVQDGSYQGERLGLKG
B16: Outer membrane porin C wild type, P06996 (protein)
chain: MKVKVLSLLVPALLVAGAANAAEVYNKDGNKLDLYGKVDGLHYFSDNKDVDGDQTYMRLGFKGETQVTDQLTGYGQWEYQIQGNSAENENNSWTRVAFAGLKFQDVGSFDYGRNYGVVYDVTSWTDVLPEFGGDTYGSDNFMQQRGNGFATYRNTDFFGLVDGLNFAVQYQGKNGNPSGEGFTSGVTNNGRDALRQNGDGVGGSITYDYEGFGIGGAISSSKRTDAQNTAAYIGNGDRAETYTGGLKYDANNIYLAAQYTQTYNATRVGSLGWANKAQNFEAVAQYQFDFGLRPSLAYLQSKGKNLGRGYDDEDILKYVDVGATYYFNKNMSTYVDYKINLLDDNQFTRDAGINTDNIVALGLVYQF

Conditions: Escherichia coli (strain K12); pH 7.5; Thermal; Intensity; HEPES 20mM; transition: 2; whole UniProt chain shown

Row | Protein | Tm [°C]
1 | B1 | 42.6
2 | B2 | 41.6
3 | B3 | 43.5
4 | B4 | 40.4
5 | B5 | 41.7
6 | B6 | 42.1
7 | B7 | 41.2
8 | B8 | 44.1
9 | B9 | 41.7
10 | B10 | 42.4
11 | B11 | 41.8
12 | B12 | 42.4
13 | B13 | 42.6
14 | B14 | 41.3
15 | B15 | 42.3
16 | B16 | 43.5
